According to the supplement of paper PMC12042874:
± gives the uncertainty stated by the source.

Assay: amyloid nucleation score (Sup35N fusion, yeast selection) (log enrichment); library NNK2; higher = more nucleation; inactive = no reads after selection
Outline: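 The nucleation score is the DiMSum log enrichment of output over input reads, centred on the mode score of non-aggregating sequences. Only sequences with 100 or more input reads were scored, using Illumina sequencing of input and output plasmid inserts. Psi-negative yeast expressing Sup35N fused to peptides of 20 random codons were induced 24 hours with 100 μM copper sulfate and grown 7 days at 30°C on medium lacking adenine and uracil.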
For FVLHIMRLSCYCE, the amyloid nucleation score was -0.29 ± 0.45.
Work on MIVWWNYCGSAVPRKIL yielded an amyloid nucleation score of -0.586 ± 1.1.
With RYNIVLGRLL the amyloid nucleation score was “inactive”.
For LAMTAAKIMDRFNGCSLKSF, the amyloid nucleation score was 0.648 ± 0.74.
In the case of YYFNEREK, the amyloid nucleation score is reported as “inactive”.
KRMSPWAVFGC showed an amyloid nucleation score of 0.872 ± 0.47.
For LRVRGRFLNSWSASPRSSDY, the amyloid nucleation score was 3.58 ± 0.053.
Work on EWFNRSRYKCHRRHVLMAMV yielded an amyloid nucleation score of 0.343 ± 0.8.
In the case of SPDRPPSVVVVDRSGDVMVC, the amyloid nucleation score is reported as 1.57 ± 0.15.
With DDWEVRN the amyloid nucleation score was 0.231 ± 0.31.
Work on DCAWNFWFSLVYRLVISGHS yielded an amyloid nucleation score of -0.38 ± 0.6.
For GVCRDNILRENFGGWSTSRS, the amyloid nucleation score was 0.15 ± 0.46.
NILLIPMRGFSRFRSVMVIP gave an amyloid nucleation score of -0.202 ± 1.1.
RYGVRTSAPNMQWLFAGWS gave an amyloid nucleation score of 0.613 ± 0.74.
TGCWVEERTRLRLRIYDLLY showed an amyloid nucleation score of 0.004 ± 1.1.
For ILDRYLVHGI, the amyloid nucleation score was -0.394 ± 0.78.
Work on KSYLFESRKIGIVTNMGSYF yielded an amyloid nucleation score of -0.594 ± 1.1.
RNYEGPPGDLGQQVLSHSMP gave an amyloid nucleation score of -0.853 ± 0.63.
YCVTTVGARCLVKFHHLDSG gave an amyloid nucleation score of 2.11 ± 0.15.
HILRQGQYGYVCCASASYEC gave an amyloid nucleation score of 7.312 ± 0.038.
ANRKRVK gave an amyloid nucleation score of 0.223 ± 0.61.
MLRPAAHDGVKASYVKFKI showed an amyloid nucleation score of 0.489 ± 0.45.
Substance GCIIFGYLG has an amyloid nucleation score of 1.57 ± 0.16.
For FILPRLIFAGQLSCGFARGV, the amyloid nucleation score was -1.17 ± 0.76.
With MLFSRFRNICG the amyloid nucleation score was -0.08 ± 1.
VLDSINVSVCSWRVSCVTWL showed an amyloid nucleation score of 7.709 ± 0.033.
In the case of NLDCLYTLAS, the amyloid nucleation score is reported as 0.339 ± 0.8.
QPCQSNSINDIHRRAGFGPL showed an amyloid nucleation score of -0.437 ± 0.64.
In the case of DRHIVLSHSSGNLSRLLLAL, the amyloid nucleation score is reported as 5.753 ± 0.055.
SSKKCDNRGLMLWVRGILVA gave an amyloid nucleation score of -0.059 ± 0.24.
FYSLLCTFPSLLTDLLLVHR gave an amyloid nucleation score of -0.66 ± 0.26.
RFLTCGNFMR gave an amyloid nucleation score of 0.214 ± 0.74.
Substance KGCEIFLVLAMCDKCSGFL has an amyloid nucleation score of 3.69 ± 0.12.
Work on TCQLMMCNFVFCCKMTSTLK yielded an amyloid nucleation score of 8.252 ± 0.047.
For EICRY, the amyloid nucleation score was “inactive”.
NSVRFSRLKRFSNCMFNHWR showed an amyloid nucleation score of 0.284 ± 0.65.
With FKAILGG the amyloid nucleation score was “inactive”.
FSHYLSRRGRPYHANCKEAL showed an amyloid nucleation score of -0.922 ± 0.39.
FEIDCIKIVCKASYHGLSGT showed an amyloid nucleation score of 2.99 ± 0.1.
Work on NMNGF yielded an amyloid nucleation score of -0.532 ± 1.
KWYICLKIIQWNCISDQC showed an amyloid nucleation score of 5.38 ± 0.054.
Substance NVPFCIVV has an amyloid nucleation score of 0.213 ± 0.57.
For TMGNHFVFVS, the amyloid nucleation score was “inactive”.
LIFQVMFVDCIEFRCWNMAL gave an amyloid nucleation score of 0.959 ± 0.6.
NMLKGMCWVTLCIWMYMRLC showed an amyloid nucleation score of 4.09 ± 0.057.
SVSRSYGEVRLEHTVLETCR showed an amyloid nucleation score of 0.619 ± 0.64.
With DGYMMGALQNYCNCTRFVLN the amyloid nucleation score was “inactive”.
CGRVTTFSLRNVARVCVSAF showed an amyloid nucleation score of -0.308 ± 0.25.
With VYFAKRLFVLFIM the amyloid nucleation score was “inactive”.
Work on RLSGRVTCSVNVGHSLKGTV yielded an amyloid nucleation score of 4.529 ± 0.045.
With KRVFMWRSG the amyloid nucleation score was -0.424 ± 1.1.
For WLPMGRAGLCYYGEFDNSCW, the amyloid nucleation score was “inactive”.
With VFTSGSRCHPWLE the amyloid nucleation score was 1.45 ± 0.27.
Substance IEMLSNY has an amyloid nucleation score of -0.575 ± 0.49.
Substance VYAIHGTRYCELGAPIDKLY has an amyloid nucleation score of 0.852 ± 0.29.
In the case of RVNTLLHILMYFNCLSGVEL, the amyloid nucleation score is reported as 4.88 ± 0.049.
Work on TQYFYIMLQ yielded an amyloid nucleation score of 5.16 ± 0.071.
With SNRLRVVQ the amyloid nucleation score was -0.069 ± 0.32.
GDCNGSLLKWWR gave an amyloid nucleation score of 0.395 ± 0.55.
For GHHLISSDFFDYWGHNMFSG, the amyloid nucleation score was “inactive”.
Work on SIGVSDGNPGRAVGGGLMGH yielded an amyloid nucleation score of 0.098 ± 0.49.
Work on GQYLLSTIIVFGCSMAGFAA yielded an amyloid nucleation score of 2.52 ± 0.12.
Substance TIMYYVWCLFFWMCLGYGHS has an amyloid nucleation score of 1.53 ± 0.1.
HNCFFITRCSKVLRAYFSTL showed an amyloid nucleation score of -1.4 ± 1.1.
For GRRDNMVRCKRLCRWRVWTA, the amyloid nucleation score was 0.157 ± 0.55.
Substance LNGLLTIRADVASKSIRLMH has an amyloid nucleation score of 0.004 ± 0.51.
KCLCAGFLF gave an amyloid nucleation score of -0.577 ± 0.38.
In the case of MFNVLIGVGRAGVNNPGHSL, the amyloid nucleation score is reported as 0.343 ± 0.64.
LTLYSGVRCFSSYLP showed an amyloid nucleation score of 0.012 ± 0.41.
With EILYYWPVNVICRKSVKDCI the amyloid nucleation score was 0.434 ± 0.66.
In the case of PLGYGMGLRGLFGLLDSYFG, the amyloid nucleation score is reported as 0.19 ± 0.8.
For VKQWT, the amyloid nucleation score was 1.74 ± 0.24.
Substance SFLMCGHWIACALTMMVMFQ has an amyloid nucleation score of 0.896 ± 0.58.
WFDWLVYSGLDHGRFIEVLK showed an amyloid nucleation score of -0.432 ± 0.74.
NVRDMCLSACTSQWYYYFAV gave an amyloid nucleation score of 0.371 ± 0.37.
AKWRDRSETYYLYFRISVRI gave an amyloid nucleation score of -0.493 ± 1.1.
CIMPVCVYDCLPLGRGIYWR gave an amyloid nucleation score of 0.745 ± 0.22.
With SFSRSGFCHMCSLSALTGLR the amyloid nucleation score was -0.196 ± 1.1.
Work on THLHQD yielded an amyloid nucleation score of -1.55 ± 0.76.
With TYGCLFDSSIMSFQLSLDNF the amyloid nucleation score was -0.28 ± 0.49.
Substance DPFSHGEASEWAHLIVSTCT has an amyloid nucleation score of 0.408 ± 0.22.
VWRNRSGNITSVTFL showed an amyloid nucleation score of 5.23 ± 0.069.
MIFLYCYIRIEKKVS gave an amyloid nucleation score of -0.927 ± 0.36.
Work on YRRYVLTL yielded an amyloid nucleation score of 0.057 ± 0.76.
In the case of LVVVMWR, the amyloid nucleation score is reported as 2.82 ± 0.19.
For TWQEAHNSQLGGFSIPEKN, the amyloid nucleation score was 0.155 ± 1.1.
